Measured values taken from the RNAGym collection of RNA variant scans (doi:10.1073/pnas.2313332121).
This sample holds only a part of the variants without activity.

B1: TPR 5TU (parent)
chain: GGAUCUUCUCGAUCUAACAAAAAAGACAAAUCUGCCACAAAGCUUGAGAGCAUCUUCGGAUGCAGAGGCGGCAGCCUUCGGUGGCGCGAUAGCGCCAACGUUCUCAACUAUGACACGCAAAACGCGUGCUCCGUUGAAUGGAGUUUAUCAUG

Variants of: B1
Experiment: polymerase ribozyme fitness, log enrichment relative to wild type (log ratio); higher = more active; in vitro selection for triplet polymerase activity
Summary of the method: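 Each subunit of a heterodimeric triplet polymerase ribozyme was mutagenized into a library by PCR, transcribed, and subjected to one round of in vitro selection, run in triplicate. Libraries were annealed with a biotinylated primer, the partner subunit and triplets, incubated frozen at −7 °C, and extended constructs were gel-excised, captured on streptavidin beads and recovered by RT-PCR. Input and output libraries were sequenced on Illumina, keeping genotypes with ≥10 input reads and ≥1 read per output. Fitness is log base 2 of genotype enrichment divided by wild-type enrichment, from inverse-variance-weighted replicate averages.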

Variant | polymerase ribozyme fitness (log ratio)
A41G U44G C75A G92A U102A U148C | ≤ -4.2
C14U G25C C38G G67A C69A C96U A121G A147C | ≤ -4.2
A37G G67A C79G | ≤ -4.2
C27U A41C G81U C96A | -2.31
A17C U53A G71C G83A A91U C93A C108U U127G | ≤ -4.2
A19U G86U | -1.75
U53A U144A | -1.56
A19U C75U U139G G140A U151G | ≤ -4.2
A20C C32G G59C C85U C95G A97G G140A U151C | ≤ -4.2
C32G C76G G84C C118U C132G G133C | ≤ -4.2
U33G G80C C85G | ≤ -4.2
A41U A52G A107U G140U C149A | ≤ -4.2
U90C C96U | -3.69
C14A A41C G94C | -2.95
G81A G86A C99G | -1.98
C57G G117U G124C | -1.64
A26U U31G G42C C93G A137G | ≤ -4.2
A30G U33G U82C C103A U144A | ≤ -4.2
U56A C63U A64U G84A G128A | ≤ -4.2
A24U U33G U56A A91G C103A | ≤ -4.2
A23G A29G C95G G152U | -3.84
C5A C14G A22G A49C G50U G58C | -4.18
A16G A26U C35A C51G U61A C87G A120U C129G | ≤ -4.2
A19G C54G G70A A73G G92A A106G C116G A137G | ≤ -4.2

Variant | polymerase ribozyme fitness (log ratio)
U53G A97G | -1.44
A30G A41C | -3.51
A121C A137U A147G | ≤ -4.2
C5G A19U A37U U45A U61A C87U | ≤ -4.2
A21C A52G C103G | -1.21
U15G C32A G88A A97G | ≤ -4.2
A22C C131G | -3.49
C85U C118U | -0.662
A23U C87G A91G | ≤ -4.2
C14U C72U C76U C96A G112U | ≤ -4.2
U55A A107C | ≤ -4.2
U55G C108G | ≤ -4.2
G81A C87U A97C U101A U104G C116U | -4.01
U135G | -3.19
A22C G86U C131A | ≤ -4.2
A52G C85U | -0.204
C57U C95A U109G | -0.696
G80A | -0.0737
U9A U13A A29G C96A C132A | ≤ -4.2
U6A A39U U101G C118G | ≤ -4.2
U33G G94A C123G G136A | ≤ -4.2
U15C C35U U56A A89C | 0.662
G58U A60G | 0.208
A17C A52G G81A G83A A98U | -0.507

Variant | polymerase ribozyme fitness (log ratio)
U33A A52G A60U G84A C95G U109G A115U G133U G140C U146G | ≤ -4.2
A66G G84A G141C | ≤ -4.2
A22U A73G U82A | 1.72
A20U G62C G94A | -3.04
A29U C38U G86A | ≤ -4.2
C10A C14U A30U C51A C57G G84A | ≤ -4.2
A20U C54G | -2.64
A29U G126A | ≤ -4.2
A52G C85G | -2.16
C5G C105U | -0.0507
C14U C35G C75U C76G C95U | -3.81
A22C U56A C57U U104G U135C | -3.35
A12U A23U A40U C87A G88C G117U | ≤ -4.2
A17U A24G A26G A47G G50A G65C U111C A142U | ≤ -4.2
G94U G140U | -3.84
A49U G133U | -3.93
U15C C27U U53A A122G | -1.39
A39C G58C A97U A98C C125U | -3.95
A21U A23G A26G G84U G86U G136U U148G | ≤ -4.2
A40C A60U G70A C103A A107G | ≤ -4.2
C85U A142C | -1.12
A49C U56A A64G C87U | ≤ -4.2
U55G G58C | -0.558
A40U G94A G126A | -0.19

Variant | polymerase ribozyme fitness (log ratio)
G80A C85G | -1.38
C18G C36A C96U A138U | -4.03
A21C G25C A52C A89U C118A A119C | -3.52
U45G C93A C116U | -2.88
U55A A66U C79U G80C C87G C116U U145G | ≤ -4.2
A97U C132A | -2.65
A24C C75A A106U C132G U139C A142U | ≤ -4.2
G25U C93A A147G | ≤ -4.2
A22U G140A | -2.83
A47U U55A C87U | -2.17
A28U U33G C43G A47C U55G U56A G84A C87G A106G A107C G133U G140U | ≤ -4.2
A3C A41G G50C U53G G67U G86C G128U C129U U146G C149U | ≤ -4.2
G140A G141A | -3.15
U31C A41C A91C C95G U139A G143C | ≤ -4.2
A19G A89C U134G | -3.68
G58U G59U U82A G84A A115U G143A | ≤ -4.2
C32G A49C U53A C85U G86U C99A A138G A150G | -4.03
G86A G100A | -3.89
A107C A142C | -4.05
G48C G80A C85U A120U A137G | ≤ -4.2
C10U | -2.16
G84U U145A | -1.53
U6G U45A C57U G67C C95G C99U | ≤ -4.2
G11U C14G A20G C27G A52U G80A A120U G141U U144G | ≤ -4.2

Variant | polymerase ribozyme fitness (log ratio)
G42A G83U A97U | ≤ -4.2
A21U A49G A98G | -0.555
C69G G84A U101C | -2.05
C18G A137G U145G | -2.16
U13C C18U | 0.127
A49C G81A G92U C93U G140U G152C | ≤ -4.2
A19C A28U C75A C85U G92U | ≤ -4.2
A28C A52G G88C A89G U101C C105G | ≤ -4.2
U55A C149U | -1.55
A21C G81C G88A A107G | ≤ -4.2
A30C C96G | -4.03
U55A U61C G94U | ≤ -4.2
C57U G84U G126C | -0.969
A28U A40C C75U G83U G133A | ≤ -4.2
A41C A73G U145C | -1.73
A12G G70A C85U C105G C116A | ≤ -4.2
U56G U148G | -3.89
A24G G71C C79G C85A G124U U130G U148C | ≤ -4.2
G81U C85U | -0.466
C8G C43G A52G C93G C114G A121G | ≤ -4.2
A28U C95A | -3.41
G50U A89U C93U C99U U145A | -3.4
A29U G48A U61G G84U C85A C105U G126U | ≤ -4.2
A22C A52G G71A C79G C87G C99G C114G U127G C129A A142C | ≤ -4.2

Variant | polymerase ribozyme fitness (log ratio)
C38U A52G A110C | ≤ -4.2
U15C A23G U82A C93G G126A | -4.14
G11A U61A C85A A122C A150C | ≤ -4.2
C54G C76U U77C C87A G126U | ≤ -4.2
A19G G48A C75G C93A | ≤ -4.2
U45A C79G G84C C93G U102G | ≤ -4.2
U6A C14U A41U G48U | -3.87
G117U G143A | -0.982
A39U U53A G86U | -3.7
C54G A89C C123G C131A | ≤ -4.2
A22C A52U U82C G86U A97G | -3.83
U45C G46A U61G G62C C76A | ≤ -4.2
C35U C54G C85A | -3.81
U13C A22G A49U G68C C79G | ≤ -4.2
C96A U134A | -2.73
A60G G68A U139A | ≤ -4.2
U61A C85A C96A A121G | ≤ -4.2
A12G A16C A119U A121G U135C U146A A150G | -4.12
A23U C57U | -3.64
A121U | -0.0614
C69A A120C | -1.7
A30U G58A C87U U90G U101A A110C G112A G126U | ≤ -4.2
G25C C69G C96A C99U C118A | ≤ -4.2
A28G A29U | -3.79

Variant | polymerase ribozyme fitness (log ratio)
A20G C54G U82A A98U U144A | -4.1
C38G C85G C105U A121U G124A | -2.25
G50A G128U | -3.21
U7A A22G U77C G124U C132A | ≤ -4.2
C72A C125U | ≤ -4.2
C18A C69G C96U C103A | -2.88
A22U G143C | -1.09
C14A C85A C129U | -2.79
C8A A22U A41C C93A G136C | ≤ -4.2
A19U A26G A122G | ≤ -4.2
C10U G25U A40U C79U G84A A142C | ≤ -4.2
A52C G70A | -3.92
G94C A122C | -0.988
A21U A41G | 1.06
G94A A97G | -2.19
G11A A91G C114U U144C | -4.14
G59A G100C | ≤ -4.2
A16C C87U | -1.85
G58A C79U | -1.65
C43U U78A C85A A115C | ≤ -4.2
C87G G141U | -3.61
A40C U61A A91G A97U G141U | ≤ -4.2
G11A A41U A60G U77C C87A | ≤ -4.2
